The record followed here is US20090054344A1.

The assay concerns the target αvβ3 integrin on C-PAE cells (bovine) (UniProt P80746). The assay is described as follows: C-PAE attachment to plates coated with 293-produced Tumstatin; 10 µg/ml peptide; competitor is the Tumstatin coat.

Sequence of αvβ3 integrin on C-PAE cells (bovine) (P80746 31-1048): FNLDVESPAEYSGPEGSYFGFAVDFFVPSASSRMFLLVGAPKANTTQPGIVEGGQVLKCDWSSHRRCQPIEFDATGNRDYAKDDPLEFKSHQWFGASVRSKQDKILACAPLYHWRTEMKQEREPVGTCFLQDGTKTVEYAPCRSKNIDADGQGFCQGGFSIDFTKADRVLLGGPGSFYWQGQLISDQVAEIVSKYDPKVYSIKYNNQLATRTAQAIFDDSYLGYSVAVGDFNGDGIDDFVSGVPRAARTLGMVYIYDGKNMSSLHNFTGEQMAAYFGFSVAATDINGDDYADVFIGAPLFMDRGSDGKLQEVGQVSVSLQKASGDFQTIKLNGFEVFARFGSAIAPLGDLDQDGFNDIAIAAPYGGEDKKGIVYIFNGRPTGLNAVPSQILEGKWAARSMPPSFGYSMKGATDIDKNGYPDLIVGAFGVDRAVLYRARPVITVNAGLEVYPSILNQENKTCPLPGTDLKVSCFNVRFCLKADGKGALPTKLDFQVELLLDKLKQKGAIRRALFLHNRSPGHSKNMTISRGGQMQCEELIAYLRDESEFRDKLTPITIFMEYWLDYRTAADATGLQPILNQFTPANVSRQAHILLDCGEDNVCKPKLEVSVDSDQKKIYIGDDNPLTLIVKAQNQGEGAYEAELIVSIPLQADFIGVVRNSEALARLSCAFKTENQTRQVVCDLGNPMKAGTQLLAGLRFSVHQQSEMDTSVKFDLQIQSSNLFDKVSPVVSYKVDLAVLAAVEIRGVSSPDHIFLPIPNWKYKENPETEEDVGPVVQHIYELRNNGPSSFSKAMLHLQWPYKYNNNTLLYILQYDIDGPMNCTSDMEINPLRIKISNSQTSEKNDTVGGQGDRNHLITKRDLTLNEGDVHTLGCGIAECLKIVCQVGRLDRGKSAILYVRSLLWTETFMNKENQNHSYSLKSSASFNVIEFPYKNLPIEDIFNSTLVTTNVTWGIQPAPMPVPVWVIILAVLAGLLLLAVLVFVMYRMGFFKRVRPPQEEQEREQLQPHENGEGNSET

B1: T3 peptide (peptide)
peptide: LQRFTTMPFLFCNVNDVCNF
The molecule B1 showed a % inhibition of cell attachment of 46.4%.
